Assay results taken from patent US20260001937A1, “NOVEL RECOMBINANT FIBRINOGEN VARIANTS FOR FIBRIN SEALANTS FOR SURGICAL WOUND CARE” (Julius-Maximilians-Universität Würzburg, priority 2022, published 2026).

Columns and labels:
[1] = tested on: ExpiCHO-S cell supernatant (degradation of fibrinogen α-chain); assay: Screening of inhibitors for Fbg degradation in ExpiCHO-S cell supernatant (SDS-PAGE); type: biochemical, Chinese hamster; conditions: commercial human Fbg 3.3 mg/mL, 37 C, several days, Aprotinin 50 μg/mL, EDTA 4 mM, 1,10 Phenanthroline 1 mM, UK 370106 100 μM
Experimental: ExpiCHO-S cells were cultured to a density of 6×10^6 cells/mL. Afterwards, cells were centrifuged for 4 min at 1000 rpm at RT and the supernatant was collected. Commercially available fibrinogen (SigmaAldrich) was mixed with the supernatant to a final concentration of 3.3 mg/mL and a volume of 200 μl. The mixture incubated at 37° C. and 750 rpm and samples were taken at 0, 24 and 48 h. For the screening the different inhibitors were added to the mixture (final concentrations: PMSF: 1 mM; Aprotinin: 50 μg/mL; GM6001: 25 μM; EDTA: 4 mM; 1,10 Phenanthroline: 1 mM; UK 370106: 100 μM). As control fibrinogen was incubated in 10 mM Tris/HCl, 150 mM NaCl (pH 7.5) under the same conditions. For the visualization of fibrinogen degradation, 20 μL of the mixtures were analyzed using SDS-PAGE.
Commercially available human Fbg was incubated with the supernatant taken from the CHO cells used for the expression and incubated the protein at 37 C for several days.

human plasmin = biological target: T1, human plasmin (Homo sapiens, UniProt P00747); assay: Plasmin digest in solution of Fbg and rFbg variants, high-resolution ESI-MS of γ-chain cleavage sites; type: biochemical; conditions: for plasmin cleavage at the 4 sites K88, K111, K382, K399 of the γ-chain: fibrinogen solution 1 mg/mL, plasmin 0.5 U/mL, 24 h, 37° C., high-resolution ESI-MS; for plasmin cleavage at position 382 of the γ-chain (FIG. 5): peptide fragments after plasmin and additional ProAlanase cleavage, both cleaved and non-cleaved peptides detected
T1 construct: Active plasmin is a serine protease that is derived from its zymogen plasminogen; purchased Merck
Experimental: In order to analyze plasmin digestion of mutated restriction sites, 100 μL of human plasmin (Merck) (0.5 U/mL) were added to 100 μg of Fbg and rFbg (Ala and His) and incubated for 24 h at 37° C. and 130 rpm in order to ensure complete cleavage. Afterwards, samples were stored at −80° C. For the analysis of the time-dependent cleavage site determination and quantification of plasmin, fibrin gels (20 mg/mL) were incubated with different plasmin concentrations ranging from 0.005 mU/mL-0.5 U/mL. Samples were taken at different timepoints from 1 min to 24 h. PMSF (1 mM) was added to the sample and heated at 95° C. for 10 minutes to ensure plasmin inactivation. Samples were stored at −80° C.
Proteins were digested either with plasmin alone (vide supra) or with plasmin and ProAlanase (ProAla) (Promega) with slight differences in handling. For all digests, all samples (WT/HIS/ALA) were brought to a concentration of 0.2 μg/μL in 50 mM tris buffer. For “plasmin only” samples were immediately purified (see below). For ProAla (Promega), 50 μL of 8M Guanidinium Hydrochloride were added to 10 μg (50 μL) of protein stock solution and briefly heated to ensure denaturation. To enable specific ProAla digest the solution was acidified using 900 μL of 32 mM HCl. After pH was checked to be in the range of 1-1.5, ProAla was added (1:50 ProAla:Protein; […]), proteolysis was allowed to continue for 2.5 h. Afterwards, pH was set to slightly basic by addition of 0.5-1 mL of 2 M Tris buffer. In the next step, the samples were immediately purified.
Precursor Tolerance of 15 ppm, fragment mass tolerance of 20 ppm, digestion C-terminal of K (non-specific), modifications are concurrent with the PMI-Byos recommendations for sequence variant analysis workflows (two rare and common modifications allowed).
Precursor Tolerance of 15 ppm, fragment mass tolerance of 20 ppm, digestion C-terminal of A and P (non-specific), modifications are concurrent with the PMI-Byos recommendations for sequence variant analysis workflows (two rare and common modifications allowed).
The α-chain plays an important part in the gelation process of fibrin. Due to the truncated α-chain gel formation with rFbg was not possible, as the production of intact complex (compare above) was still ongoing. Therefore, plasmin digests in solution with WT as well as both Ala- and His-rFbg mutants was performed to investigate if the inserted mutations are limiting proteolytic efficiency of plasmin at the respective cleavage sites. Plasmin was added to the fibrinogen solution (1 mg/mL) to a final concentration of 0.5 U/mL and the mixture was incubated for 24 h to ensure complete cleavage of fibrinogen. […] At some positions both cleaved and non-cleaved peptides were detected, however no cleavage did contain a mutation. This might be due to residual WT-Fbg peptides either on the column (carryover) or through residual WT-Fbg at any point in the workup.

T1 sequence (P00747 97-580 limits assumed): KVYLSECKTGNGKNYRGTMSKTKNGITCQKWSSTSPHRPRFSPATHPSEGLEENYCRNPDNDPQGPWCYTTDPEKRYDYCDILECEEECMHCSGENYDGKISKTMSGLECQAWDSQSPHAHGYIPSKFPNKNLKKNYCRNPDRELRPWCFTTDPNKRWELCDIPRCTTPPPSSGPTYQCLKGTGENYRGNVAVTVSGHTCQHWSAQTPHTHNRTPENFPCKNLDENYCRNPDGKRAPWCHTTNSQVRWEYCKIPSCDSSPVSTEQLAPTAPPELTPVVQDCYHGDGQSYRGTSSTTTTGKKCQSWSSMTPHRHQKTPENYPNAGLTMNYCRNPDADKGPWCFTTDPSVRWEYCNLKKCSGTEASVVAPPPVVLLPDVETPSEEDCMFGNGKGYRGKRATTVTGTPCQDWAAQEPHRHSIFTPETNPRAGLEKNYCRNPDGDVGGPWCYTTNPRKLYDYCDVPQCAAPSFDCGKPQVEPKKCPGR
T1 sequence (P00747 581-810 limits assumed): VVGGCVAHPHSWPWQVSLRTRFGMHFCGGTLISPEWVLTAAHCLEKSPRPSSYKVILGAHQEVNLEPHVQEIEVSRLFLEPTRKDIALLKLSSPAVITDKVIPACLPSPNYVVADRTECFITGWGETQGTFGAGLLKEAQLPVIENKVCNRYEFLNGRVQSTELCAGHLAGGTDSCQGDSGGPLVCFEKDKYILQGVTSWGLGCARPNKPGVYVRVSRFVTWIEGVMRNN
His-rFbgH433R435, sequence (chain, as listed by the source, chain 1 of 3): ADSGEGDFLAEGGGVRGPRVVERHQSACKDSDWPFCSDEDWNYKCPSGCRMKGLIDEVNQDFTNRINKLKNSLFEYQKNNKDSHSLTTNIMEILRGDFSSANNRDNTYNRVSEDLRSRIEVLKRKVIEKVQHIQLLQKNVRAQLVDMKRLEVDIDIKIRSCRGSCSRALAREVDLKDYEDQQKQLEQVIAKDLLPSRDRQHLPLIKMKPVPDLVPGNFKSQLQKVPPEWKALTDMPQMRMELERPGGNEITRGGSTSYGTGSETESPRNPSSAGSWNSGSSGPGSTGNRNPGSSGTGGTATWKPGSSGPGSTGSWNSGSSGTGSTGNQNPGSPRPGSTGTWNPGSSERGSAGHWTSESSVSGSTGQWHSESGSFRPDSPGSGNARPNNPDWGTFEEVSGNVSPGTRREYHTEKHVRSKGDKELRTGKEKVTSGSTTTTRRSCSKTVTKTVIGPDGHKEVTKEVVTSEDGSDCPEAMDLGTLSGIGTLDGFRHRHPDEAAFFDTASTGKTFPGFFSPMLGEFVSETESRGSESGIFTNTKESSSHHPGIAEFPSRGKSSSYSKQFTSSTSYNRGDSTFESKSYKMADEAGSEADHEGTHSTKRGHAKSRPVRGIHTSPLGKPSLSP
His-rFbgH433R435, sequence (chain, as listed by the source, chain 2 of 3): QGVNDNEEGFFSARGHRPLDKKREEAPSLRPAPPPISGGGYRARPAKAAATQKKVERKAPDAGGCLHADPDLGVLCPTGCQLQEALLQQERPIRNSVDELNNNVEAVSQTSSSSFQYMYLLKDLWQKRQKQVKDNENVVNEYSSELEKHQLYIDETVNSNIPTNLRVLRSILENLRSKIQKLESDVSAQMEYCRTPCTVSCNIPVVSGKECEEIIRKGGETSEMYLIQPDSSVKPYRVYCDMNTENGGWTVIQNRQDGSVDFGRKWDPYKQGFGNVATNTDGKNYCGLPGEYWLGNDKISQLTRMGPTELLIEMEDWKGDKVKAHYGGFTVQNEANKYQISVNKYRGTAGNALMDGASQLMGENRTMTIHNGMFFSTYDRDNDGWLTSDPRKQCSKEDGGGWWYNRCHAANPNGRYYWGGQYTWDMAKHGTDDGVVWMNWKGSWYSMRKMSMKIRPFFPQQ
His-rFbgH433R435, sequence (chain, as listed by the source, chain 3 of 3): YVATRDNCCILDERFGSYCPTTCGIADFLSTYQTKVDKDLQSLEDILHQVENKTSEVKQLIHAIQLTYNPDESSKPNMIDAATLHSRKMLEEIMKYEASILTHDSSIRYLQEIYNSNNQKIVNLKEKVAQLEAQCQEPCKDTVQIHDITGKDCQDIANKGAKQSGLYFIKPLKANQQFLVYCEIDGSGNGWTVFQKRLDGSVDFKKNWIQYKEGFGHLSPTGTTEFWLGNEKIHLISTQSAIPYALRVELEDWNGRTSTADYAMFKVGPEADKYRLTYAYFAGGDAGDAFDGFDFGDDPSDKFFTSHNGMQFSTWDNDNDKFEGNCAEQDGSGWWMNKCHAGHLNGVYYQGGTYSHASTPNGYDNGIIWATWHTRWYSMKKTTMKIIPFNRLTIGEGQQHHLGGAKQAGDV

| Compound | state of the Fbg α-chain after incubation with CHO cell supernatant plus inhibitor [1] | plasmin cleavage at the 4 sites K88, K111, K382, K399 of the γ-chain (human plasmin) | other results |
| --- | --- | --- | --- |
| O=C(O)CN(CCN(CC(=O)O)CC(=O)O)CC(=O)O [EDTA] | intact α-chain was detected |  |  |
| His-rFbg: recombinant fibrinogen of Aα-, Bβ- and γ-chain with γ-chain K88H, K111H, K382H, K399H |  | no cleavage was detected | plasmin cleavage at position 382 of the γ-chain (FIG. 5) (human plasmin): partial cleavage |
| COC[C@@H](NC(=O)[C@@H](NC(=O)[C@H](CCCc1ccc(-c2ccccc2)c(C)c1)CC(=O)O)C(C)(C)C)c1ccccc1 [UK 370106, (βR)-β-[[[(1 S)-1-[[[(1 S)-2-Methoxy-1-phenylethyl]amino]carbonyl]-2,2-dimethylpropyl]amino]carbonyl]-2-methyl-[1,1′-biphenyl]-4-hexanoic acid] | intact α-chain was detected |  |  |
| c1cnc2c(c1)ccc1cccnc12 [1,10 Phenantroline, 1,10 Phenanthroline] | intact α-chain was detected |  |  |
| thrombin |  |  | thrombin-catalyzed fibrin polymerization, turbidity at 350 nm (His-rFbgH433R435): thrombin-induced fibrin polymerization of His-rFbgH433R435 was slightly reduced compared with control (pFbg), with a similar lag time and comparable absorption |
| WT: commercially available human fibrinogen (SigmaAldrich), wild type, used as control [reference compound] |  | could be detected |  |
| Ala-rFbg: recombinant fibrinogen of Aα-, Bβ- and γ-chain with γ-chain K88A, K111A, K382A, K399A |  | no cleavage was detected | plasmin cleavage at position 382 of the γ-chain (FIG. 5) (human plasmin): partial cleavage |
